“And” between values parts separate entries of the source, which are not always exact repeats. Identical values can stand only once.

To fix the notation:
B1: Tryptophan synthase alpha chain, P00929 (parent)
chain: MERYENLFAQLNDRREGAFVPFVTLGDPGIEQSLKIIDTLIDAGADALELGVPFSDPLADGPTIQNANLRAFAAGVTPAQCFEMLALIREKHPTIPIGLLMYANLVFNNGIDAFYARCEQVGVDSVLVADVPVEESAPFRQAALRHNIAPIFICPPNADDDLLRQVASYGRGYTYLLSRSGVTGAENRGALPLHHLIEKLKEYHAAPALQGFGISSPEQVSAAVRAGAAGAISGSAIVKIIEKNLASPKQMLAELRSFVSAMKAASRA

Variants of B1 are the subject of this data set. To be noted: Salmonella typhimurium (strain LT2 / SGSC1412 / ATCC 700720), pH 7.8, 25 °C, Urea, CD, Potassium phosphate 10 mM, reversible: yes, structure 2WSY, whole UniProt chain shown.

For F22L, the “ddG of mutation (higher = less stable)” value was found to be 1.05 kcal/mol and the unfolding free energy turned out to be 12.1 kcal/mol. Moreover, where the note is “transition: 3”, the denaturant m value is 2.96 kcal/mol/M and 1.7 kcal/mol/M; the “denaturant midpoint (higher = more stable)” value (shortened to “denaturant midpoint”) is 2.1 M and 3.3 M; the unfolding free energy is 6.38 kcal/mol and 5.73 kcal/mol.

Turning to F22V, the “ddG of mutation (higher = less stable)” value came out at 3.44 kcal/mol and the unfolding free energy is 9.72 kcal/mol. For the setting “transition: 3”, the “ddG of mutation (higher = less stable)” value is -0.06 kcal/mol, the denaturant m value was 1.74 kcal/mol/M, the “denaturant midpoint” value is 3.3 M and the unfolding free energy amounted to 5.87 kcal/mol.

Regarding F22I, the “ddG of mutation (higher = less stable)” value is 4.58 kcal/mol and the unfolding free energy was 8.58 kcal/mol. Also, where the note is “transition: 3”, the denaturant m value is 1.57 kcal/mol/M and 1.51 kcal/mol/M; the “denaturant midpoint” value was 2 M and 3.6 M; the unfolding free energy is 3.16 kcal/mol and 5.43 kcal/mol.

These data come from FireProtDB (doi:10.1021/bi00123a002).
